Measurements reported in PMC5775349.

Columns and labels:
[1] = target: 40S ribosomes of S223A cells (S. cerevisiae | S. cerevisiae (endogenous in yeast cells)) (UniProt P26783); test: co-sedimentation; yeast lysate in TSM buffer (10 mM Tris-HCl pH7.4, 100 mM NaCl, 30 mM MgCl2), 10-40% sucrose gradient ultracentrifugation; fractions blotted with anti-HA and anti-Rio2; densitometry, duplicate experiments
[2] = target: 40S ribosomes of cells with WT uS7 (S. cerevisiae | S. cerevisiae (endogenous in yeast cells)) (UniProt P26783); test: as above

percent of Rio2 in the 40S fraction [1]: 28%
percent of Rio2 in the 40S fraction [2]: 41%
Substance: Rio2, endogenous (from UniProt P40160 1-425) (natural protein)
